Experimental data published in paper doi:10.1101/2021.04.19.440493.

Experiments:
[1] = target: α-domain of Ag43a from UPEC CFT073 (α^43a) (E. coli CFT073 (UPEC)); assay: AUC
[2] = target: α-domain of Ag43a from UPEC CFT073 (α^43a) (E. coli CFT073 (UPEC)); assay: small-angle X-ray scattering
[3] = target: α-domain of Ag43 from UPEC UTI89 (α^43_UTI89) (E. coli O18:K1:H7 UTI89 (UPEC)); assay: AUC
[4] = target: α-domain of Ag43 from UPEC UTI89 (α^43_UTI89) (E. coli O18:K1:H7 UTI89 (UPEC)); assay: small-angle X-ray scattering

Row | Substance | stoichiometry N [1] | stoichiometry N [2] | stoichiometry N [3] | stoichiometry N [4]
1 | α-domain of Ag43a from UPEC CFT073 (α^43a) (domain or fragment) | 2 | 2 |  | 
2 | α-domain of Ag43 from UPEC UTI89 (α^43_UTI89) (domain or fragment) |  |  | 2 | 2
